This is an account of results in patent US8173668B1 (Alcon Research, Ltd., priority 2007, dated 2012).

For data set [1], the system named is conscious ocular hypertensive cynomolgus monkey eyes. As to the kind of experiment: IOP response in lasered (hypertensive) eyes of conscious cynomolgus monkeys, topical ocular. Conditions: for % Change in IOP: Table 10, 300 μg topical ocular. The class given is in vivo. The protocol: Intraocular pressure (IOP) is determined with an Alcon Pneumatonometer (Alcon Laboratories, Inc., Fort Worth, Tex.) after light corneal anesthesia with 0.1% proparacaine. Right eyes are hypertensive as a result of laser trabeculoplasty. After a baseline IOP measurement, test compound is instilled in the right eyes only of 8-10 cynomolgus monkeys. Vehicle is instilled in the right eyes of 5-6 additional animals. Subsequent IOP measurements are taken at 1, 3, and 6 hours. IOP measurements are also taken on left eyes (normotensive and untreated) at each of these time points. The percent change in IOP from baseline is determined for each animal for every IOP measurement (Sharif et al. J. Ocular Pharmacol. Ther. 17: 305-317, 2001; May et al., J Pharmacol Exp Ther. 306: 301-309, 2003; Sharif et al. Invest. Ophthalmol. Vis. Res. 47: 4001-4010, 2006). Group mean and standard error of the mean (SEM) are calculated for each time point. […] In cases where the compound of invention has poor ocular bioavailability, the compound may need to be administered intracamerally or intravitreally in order to observe the IOP-lowering efficacy.
The IOP-lowering effect was slow to develop but significant IOP reduction was observed even 3 hours post-dosing with maximum ocular hypotension observed 16-48 hours post-dosing (Tables 6-8; FIGS. 3b-5).

Data set [2] deals with human bradykinin B2-receptor (human) (UniProt P30411). As to the kind of experiment: cell-based or functional assay.
Data set [3] concerns the target T1, B2-receptors in h-CM cells (Homo sapiens, UniProt P30411).
T1 construct: B2-receptor proteins in h-TM, h-CM and h-NPE cells; endogenous in cells; host or cells: human trabecular meshwork (h-TM), human ciliary muscle (h-CM) and human non-pigmented ciliary epithelial (h-NPE) cells
T1 sequence (P30411 1-391): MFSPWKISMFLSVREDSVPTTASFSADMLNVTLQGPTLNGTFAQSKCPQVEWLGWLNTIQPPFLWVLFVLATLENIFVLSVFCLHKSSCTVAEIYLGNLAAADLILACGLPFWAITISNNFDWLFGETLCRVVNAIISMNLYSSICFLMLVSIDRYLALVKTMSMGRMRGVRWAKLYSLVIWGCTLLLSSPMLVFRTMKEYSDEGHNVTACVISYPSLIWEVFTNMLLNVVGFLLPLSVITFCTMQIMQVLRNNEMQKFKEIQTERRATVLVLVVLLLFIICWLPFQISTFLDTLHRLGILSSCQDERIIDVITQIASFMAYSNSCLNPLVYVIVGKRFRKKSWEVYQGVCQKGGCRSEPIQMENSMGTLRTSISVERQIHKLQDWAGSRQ
As to the kind of experiment: [Ca2+]i mobilization (FLIPR) in h-CM cells, agonist mode. Format: cell-based. Conditions: read-out: Intrinsic Activity (Emax, % max relative to BK). On the procedure: (§1) On the day of the experiment, one vial of FLIPR Calcium Assay Kit dye is re-suspended in 50 mL of a FLIPR buffer consisting of Hank's Balanced Salt Solution (HBSS), 20 mM HEPES, and 2.5 mM probenecid, pH 7.4. Cells are loaded with the calcium-sensitive dye by addition of an equal volume (50 μL) to each well of the 96-well plate and incubated with dye for 1 h at 23° C. After this time, the test compound plate and cell plate are placed in the FLIPR instrument. At the beginning of an experimental run, a signal test is performed to check the basal fluorescence signal from the dye-loaded cells and the uniformity of the signal across the plate. The basal fluorescence is adjusted between 8000-12000 counts by modifying the exposure time, the camera F-stop, or the laser power. Instrument settings for a typical assay are the following: laser power 0.3-0.6 W, camera F-stop F/2, and exposure time 0.4 sec.
(§2) Fluorescence data are collected in real-time at 1.0 sec intervals for the first 60 secs and at 6.0 sec intervals for an additional 120 secs. […] The data are then analyzed using an automated, iterative, sigmoidal curve-fitting computer program to obtain the potency and intrinsic activities of the test agents as previously described (Sharif et al. J. Pharmacol. Exp. Ther. 286: 1094-1102, 1998; Sharif et al. Invest. Ophthalmol. Vis. Sci. 39:2562-2571, 1998; Kelly et al. J. Pharmacol. Exp. Ther. 304: 238-245, 2003). The sources of materials and reagents for such assays can be found in the references cited above.

The target in data set [4] is T2, B2-receptors in h-NPE cells (Homo sapiens, UniProt P30411).
T2 construct: B2-receptor proteins in h-TM, h-CM and h-NPE cells; endogenous in cells; host or cells: human trabecular meshwork (h-TM), human ciliary muscle (h-CM) and human non-pigmented ciliary epithelial (h-NPE) cells
T2 sequence (P30411 1-391): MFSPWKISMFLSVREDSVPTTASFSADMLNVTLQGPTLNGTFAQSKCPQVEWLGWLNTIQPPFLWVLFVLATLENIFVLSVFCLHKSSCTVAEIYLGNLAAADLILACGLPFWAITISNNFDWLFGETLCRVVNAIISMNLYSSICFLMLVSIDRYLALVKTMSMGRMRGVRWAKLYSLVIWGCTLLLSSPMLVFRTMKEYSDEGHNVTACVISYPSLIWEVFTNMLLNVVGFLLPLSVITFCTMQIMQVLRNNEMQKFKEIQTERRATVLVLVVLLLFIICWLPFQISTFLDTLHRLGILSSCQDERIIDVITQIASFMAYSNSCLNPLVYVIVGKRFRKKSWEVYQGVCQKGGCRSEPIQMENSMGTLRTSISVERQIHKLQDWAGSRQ
As to the kind of experiment: [Ca2+]i mobilization (FLIPR) in h-NPE cells, agonist mode. The class given is cell-based. Conditions: read-out: Intrinsic Activity (Emax, % max relative to BK). The protocol: as §1, §2

Data set [5] deals with T3, B2-receptors in h-TM cells (Homo sapiens, UniProt P30411).
T3 construct: B2-receptor proteins in h-TM, h-CM and h-NPE cells; endogenous in cells; host or cells: human trabecular meshwork (h-TM), human ciliary muscle (h-CM) and human non-pigmented ciliary epithelial (h-NPE) cells
T3 sequence (P30411 1-391): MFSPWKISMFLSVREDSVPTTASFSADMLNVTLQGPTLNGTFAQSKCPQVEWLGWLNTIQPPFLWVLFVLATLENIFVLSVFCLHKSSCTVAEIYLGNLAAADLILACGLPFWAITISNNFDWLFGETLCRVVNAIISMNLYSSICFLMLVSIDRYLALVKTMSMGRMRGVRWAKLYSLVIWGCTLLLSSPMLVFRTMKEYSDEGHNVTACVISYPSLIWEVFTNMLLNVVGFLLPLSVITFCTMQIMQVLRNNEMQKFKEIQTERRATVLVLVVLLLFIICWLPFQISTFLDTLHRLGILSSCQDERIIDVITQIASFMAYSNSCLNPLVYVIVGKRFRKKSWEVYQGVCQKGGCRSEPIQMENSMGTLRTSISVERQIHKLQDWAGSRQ
As to the kind of experiment: [Ca2+]i mobilization (FLIPR) in h-TM cells, agonist mode. Format: cell-based. Conditions: HTM, read-out: Intrinsic Activity (Emax, % max relative to BK). On the procedure: as §1, §2

Data set [6] concerns the target T4, human bradykinin B2-receptor (human, UniProt P30411 1-391).
T4 sequence (looked up): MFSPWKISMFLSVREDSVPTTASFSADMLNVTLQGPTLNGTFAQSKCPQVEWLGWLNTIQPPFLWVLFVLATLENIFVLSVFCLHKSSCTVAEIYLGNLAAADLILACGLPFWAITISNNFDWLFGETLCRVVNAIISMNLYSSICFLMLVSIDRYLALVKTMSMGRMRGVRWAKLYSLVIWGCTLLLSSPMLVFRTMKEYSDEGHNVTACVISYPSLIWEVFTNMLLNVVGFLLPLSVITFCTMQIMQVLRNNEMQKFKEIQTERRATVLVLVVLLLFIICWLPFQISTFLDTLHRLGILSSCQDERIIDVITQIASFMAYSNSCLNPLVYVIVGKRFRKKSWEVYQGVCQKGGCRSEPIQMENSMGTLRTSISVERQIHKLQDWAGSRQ
The experiment in a line: cell-based or functional assay.

Regarding `CCCC[P+](CCCC)(CCCC)Cc1ccc(NC(=O)[C@H](Cc2ccc3ccccc3c2)NC(=NC2CCCCC2)NC2CCCCC2)cc1.[Cl-]` [WIN-64338, reference compound], in data set [1] (300 μg topically administered), the “modulation of IOP” value was “failed to modulate IOP”. Besides, the “% Change in IOP” value in data set [1] (Dose 1/1 hr) is on record as 1.7 ± 1.6%; in data set [1] (Dose 1/3 hr), −10.4 ± 2.8%; in data set [1] (Dose 1/6 hr), 1.3 ± 1.3%.
In data set [2], “Des-Arg^9-BK (Arg-Pro-Pro-Gly-Phe-Ser-Pro-Phe) (peptide)” displayed a [Ca2+]i mobilization in h-CM cells: Intrinsic Activity (Emax, % max relative to BK) of 94%; a [Ca2+]i mobilization in h-CM cells: Potency (EC50; nM) of 4260 nM; a [Ca2+]i mobilization in h-NPE cells: Intrinsic Activity (Emax, % max relative to BK) of 70%; a [Ca2+]i mobilization in h-NPE cells: Potency (EC50; nM) of 16000 nM. In data set [2], this molecule registered a [Ca2+]i mobilization in h-TM cells: Intrinsic Activity (Emax, % max relative to BK) of 112% and a [Ca2+]i mobilization in h-TM cells: Potency (EC50; nM) of 2570 nM.
Consider H-RPPGFSPFR-OH [BK], for which the results for the Emax in data set [3], in data set [4] and in data set [5] were 104%, 98% and 110%, respectively.
In data set [2], “Hyp^3-BK (Arg-Pro-Hyp-Gly-Phe-Ser-Pro-Phe-Arg) (peptide)” had a [Ca2+]i mobilization in h-CM cells: Intrinsic Activity (Emax, % max relative to BK) of 105%; a [Ca2+]i mobilization in h-NPE cells: Intrinsic Activity (Emax, % max relative to BK) of 93%; a [Ca2+]i mobilization in h-NPE cells: Potency (EC50; nM) of 6 nM; a [Ca2+]i mobilization in h-TM cells: Intrinsic Activity (Emax, % max relative to BK) of 110%. Moreover, in data set [2], the [Ca2+]i mobilization in h-TM cells: Potency (EC50; nM) was determined as 0.9 nM.

B1: Lys-BK (Lys-Arg-Pro-Pro-Gly-Phe-Ser-Pro-Phe-Arg) (peptide)
peptide: KRPPGFSPFR
Regarding B1, in data set [6], the “[Ca2+]i mobilization in h-CM cells: Intrinsic Activity (Emax, % max relative to BK)” value is 115%; the “[Ca2+]i mobilization in h-CM cells: Potency (EC50; nM)” value was 3.2 nM; the “[Ca2+]i mobilization in h-NPE cells: Intrinsic Activity (Emax, % max relative to BK)” value was determined as 90%; the “[Ca2+]i mobilization in h-NPE cells: Potency (EC50; nM)” value came to 19.6 nM. In data set [6], the “[Ca2+]i mobilization in h-TM cells: Intrinsic Activity (Emax, % max relative to BK)” value is 115% and the “[Ca2+]i mobilization in h-TM cells: Potency (EC50; nM)” value is 1.9 nM.

B2: Met-Lys-BK (Met-Lys-Arg-Pro-Pro-Gly-Phe-Ser-Pro-Phe-Arg) (peptide)
peptide: MKRPPGFSPFR
In the case of B2, in data set [6], the “[Ca2+]i mobilization in h-CM cells: Intrinsic Activity (Emax, % max relative to BK)” value came out at 110%; the “[Ca2+]i mobilization in h-CM cells: Potency (EC50; nM)” value stood at 16.1 nM; the “[Ca2+]i mobilization in h-NPE cells: Intrinsic Activity (Emax, % max relative to BK)” value was 77%; the “[Ca2+]i mobilization in h-NPE cells: Potency (EC50; nM)” value was 125 nM. Also, in data set [6], the “[Ca2+]i mobilization in h-TM cells: Intrinsic Activity (Emax, % max relative to BK)” value was 111% and the “[Ca2+]i mobilization in h-TM cells: Potency (EC50; nM)” value was determined as 6.5 nM.
